{"source": "patent US20060019314A1", "key": {"FOXO3a (human)": {"biological_target": "FOXO3a (human) (UniProt O43524)", "experiment": "cell-based or functional assay"}, "FOXO3a-TM (human)": {"biological_target": "FOXO3a-TM (human) (UniProt O43524)", "experiment": "cell-based or functional assay"}}, "data": [{"substance": "human Smek1 (from UniProt Q6IN85 1-833)", "values": [{"measurement": "synthetic FOXO luciferase reporter (three tandem IRS elements), HepG2 cells (percent increase)", "setting": "FOXO3a (human)", "value": 50}, {"measurement": "synthetic FOXO luciferase reporter (three tandem IRS elements), 293 cells", "setting": "FOXO3a-TM (human)", "value": 12, "unit": "fold"}, {"measurement": "synthetic FOXO luciferase reporter (three tandem IRS elements), HepG2 cells", "setting": "FOXO3a-TM (human)", "value": 2, "unit": "fold"}]}]}
